From article PMC7183766

Target: SpirNT(A*)-biotin (on streptavidin beads) (Drosophila melanogaster) (UniProt Q9U1K1)
Experiment: TIRF microscopy of actin filaments on protein-coated beads

SpirNT(A*)-biotin (on streptavidin beads) (Drosophila melanogaster), sequence (Q9U1K1 1-490): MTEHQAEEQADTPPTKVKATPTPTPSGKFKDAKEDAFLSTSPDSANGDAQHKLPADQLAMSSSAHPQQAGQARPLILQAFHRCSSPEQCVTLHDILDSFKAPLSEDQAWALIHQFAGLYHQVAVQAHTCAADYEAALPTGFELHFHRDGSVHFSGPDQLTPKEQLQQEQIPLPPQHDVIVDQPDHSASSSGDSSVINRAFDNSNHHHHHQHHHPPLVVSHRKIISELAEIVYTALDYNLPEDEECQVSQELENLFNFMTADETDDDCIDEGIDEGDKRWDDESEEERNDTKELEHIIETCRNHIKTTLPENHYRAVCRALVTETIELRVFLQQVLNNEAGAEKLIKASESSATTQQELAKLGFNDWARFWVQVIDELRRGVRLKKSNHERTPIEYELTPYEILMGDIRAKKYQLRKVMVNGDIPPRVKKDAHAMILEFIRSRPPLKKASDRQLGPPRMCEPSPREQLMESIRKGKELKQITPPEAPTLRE

- koff: 0.011 s⁻¹
Substance: actin filaments (Acanthamoeba castellani actin) (natural protein)
